These are literature values, as cited in publication PMC3128988.

In the series the target is CD47 (Homo sapiens) (UniProt Q08722).
UniProt Q08722, sequence (Q08722 19-323): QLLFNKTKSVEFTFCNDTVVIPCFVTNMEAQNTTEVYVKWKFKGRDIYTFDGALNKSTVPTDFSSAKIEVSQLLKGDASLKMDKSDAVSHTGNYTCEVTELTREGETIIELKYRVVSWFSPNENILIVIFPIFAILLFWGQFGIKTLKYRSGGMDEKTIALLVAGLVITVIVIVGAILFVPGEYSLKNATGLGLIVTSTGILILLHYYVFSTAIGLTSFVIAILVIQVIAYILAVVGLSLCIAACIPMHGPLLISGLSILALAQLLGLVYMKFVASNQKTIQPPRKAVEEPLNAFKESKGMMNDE

By Kd is commonly meant the concentration at which binding is half-saturated. Take SIRPα (from UniProt P78324): the Kd was 1 µM.
